Measurements from the supplement of paper PMC7877785.
± gives the uncertainty stated by the source.

Assay: self-splicing fitness, log relative to wild type (ln ratio); higher = more splicing; Tetrahymena group I intron in knt gene, E. coli kanamycin selection, DiMSum; sequences stand for … in CUCUCU…GGAGGGAAAAGUUAUCAGGCAUGCACCUGGUAGCUAGUCUUUAAACCAAUAGAUUGCAUCGGUUUAAAAGGCAAGACCGUCAAAUUGCGGGAAAGGGGUCAACAGCCGUUCAGUACCAAGUCUCAGGGGAAACUUUGAGAUGGCCUUGCAAAGGGUAUGGUAAUAAGCUGACGGACAUGGUCCUAACCACGCAGCCAAGUCCUAAGUCAACAGAUCUUCUGUUGAUAUGGAUGCAGUUCACAGACUAAAUGUCGGUCGGGGAAGAUGUAUUCUUCUCAUAAGAUAUAGUCGGACCUCUCCUUAAUGGGAGCUAGCGGAUGAAGUGAUGCAACACUGGAGCCGCUGGGAACUAAUUUGUAUGCGAAAGUAUAUUGAUUAGUUUUGGAGUACUCGUGGUCG
Outline: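 Pooled colonies went to amplicon sequencing on an Illumina HiSeq 2500 after six replicate transformations. The plates were LB agar with 100 μg/mL carbenicillin, 50 μM IPTG and 0.2% rhamnose, with or without 25 μg/mL kanamycin, incubated overnight at 37°C or 30°C. The E. coli BL21(DE3) library had all eight P1ex-region intron nucleotides randomised, the intron placed in the knt kanamycin-resistance gene on pET-22b(+). DiMSum fitness is the error-weighted combination of replicate fold changes, kanamycin against none, normalised to wild type.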

Sequence	self-splicing fitness (ln) (30 °C)	self-splicing fitness (ln) (37 °C)
GGACAGCAAUAUUACGCAUA	-0.761 ± 0.094	0.314 ± 0.12
ACACAGCAAUAUUACGAACU	-0.798 ± 0.05	-0.493 ± 0.068
GGGCAGCAAUAUUACGACCU	-1.88 ± 0.28	-1.26 ± 0.44
AUAUAGCAAUAUUACGCGAG	-2.35 ± 0.13	-1.09 ± 0.13
CACCAGCAAUAUUACGCAAC	-2.68 ± 0.48	-2.85 ± 0.28
CGUCAGCAAUAUUACGGCUU	-1.34 ± 0.11	-0.493 ± 0.099
GCUGAGCAAUAUUACGCAAU	-2.2 ± 0.26	-1.9 ± 0.23
GAAGAGCAAUAUUACGCAAG	-3.6 ± 0.39	-2.68 ± 0.36
UACGAGCAAUAUUACGGCGA	-1.39 ± 0.15	-0.508 ± 0.15
UUAGAGCAAUAUUACGUGAG	-1.88 ± 0.083	-0.875 ± 0.13
UGCGAGCAAUAUUACGUAAC	-3.17 ± 0.18	-3.09 ± 0.27
UUCAAGCAAUAUUACGCGUA	-1.17 ± 0.14	-0.0781 ± 0.1
AUGCAGCAAUAUUACGUUCC	-1.55 ± 0.18	-1.17 ± 0.22
UGGAAGCAAUAUUACGCAAA	-1.24 ± 0.16	-0.937 ± 0.16
GAUAAGCAAUAUUACGUUAG	-5.21 ± 0.45	-2.27 ± 0.22
UAGAAGCAAUAUUACGGGUC	-3.55 ± 0.33	-2.84 ± 0.44
UAGUAGCAAUAUUACGGGCG	-0.694 ± 0.14	-0.395 ± 0.12
GCCUAGCAAUAUUACGUCUA	-3.26 ± 0.38	-1.73 ± 0.2
AGGCAGCAAUAUUACGGUGC	-3.54 ± 0.16	-2.89 ± 0.2
UCAGAGCAAUAUUACGUCUG	-2.88 ± 0.12	-2.35 ± 0.14
GUCGAGCAAUAUUACGUUGG	-1.9 ± 0.16	-2.95 ± 0.47
GGCUAGCAAUAUUACGAACU	-0.723 ± 0.25	0.433 ± 0.25
UGUCAGCAAUAUUACGAAUU	-0.864 ± 0.13	-1.04 ± 0.13
AAAUAGCAAUAUUACGAGAA		-0.893 ± 0.23
UUCCAGCAAUAUUACGGAUA	-0.966 ± 0.092	-0.56 ± 0.098

Sequence	self-splicing fitness (ln) (30 °C)	self-splicing fitness (ln) (37 °C)
AAACAGCAAUAUUACGAGCU	-1.25 ± 0.068	-0.704 ± 0.086
UGGGAGCAAUAUUACGGAUU	-4.21 ± 0.31	-3.06 ± 0.26
UAACAGCAAUAUUACGUUUG	-2.13 ± 0.079	-0.759 ± 0.081
CAUUAGCAAUAUUACGAGGA	-2.75 ± 0.35	
AAGGAGCAAUAUUACGUAAA	-2.81 ± 0.32	-0.663 ± 0.24
CCUUAGCAAUAUUACGGUAU	-3.64 ± 0.33	-2.67 ± 0.36
AGGAAGCAAUAUUACGGGAG	-2.22 ± 0.19	-2.95 ± 0.37
AAUGAGCAAUAUUACGCCCU	-1.32 ± 0.12	-1.16 ± 0.17
UUGCAGCAAUAUUACGUGAU	-3.85 ± 0.2	-2.06 ± 0.17
UUUGAGCAAUAUUACGCGUA		0.0632 ± 0.24
UAAGAGCAAUAUUACGCUAU	-3.95 ± 0.32	-2.64 ± 0.24
GACAAGCAAUAUUACGUUGC	-3.63 ± 0.14	-2.31 ± 0.16
CGGGAGCAAUAUUACGGCUC	-3 ± 0.3	-2.12 ± 0.42
GAAAAGCAAUAUUACGAGGG		-1.77 ± 0.25
AUGCAGCAAUAUUACGCAGA	-2.98 ± 0.16	-1.71 ± 0.12
UUGUAGCAAUAUUACGAUUC	-3.76 ± 0.34	-3.2 ± 0.3
GAGCAGCAAUAUUACGACUU	-0.557 ± 0.11	-0.841 ± 0.14
CAGGAGCAAUAUUACGCUUU	-3.59 ± 0.22	-1.81 ± 0.17
UGGCAGCAAUAUUACGCAGC		-2.2 ± 0.39
UCAGAGCAAUAUUACGCAUU	-3.35 ± 0.43	-0.634 ± 0.19
ACAUAGCAAUAUUACGACAA	-0.573 ± 0.12	-0.73 ± 0.12
CUGUAGCAAUAUUACGCCGU		-2.96 ± 0.4
GCAUAGCAAUAUUACGCACU	-0.629 ± 0.09	-0.277 ± 0.13
CCGUAGCAAUAUUACGGUGC	-2.96 ± 0.16	-1.93 ± 0.16
CAUAAGCAAUAUUACGUCCA	-3.32 ± 0.33	-1.87 ± 0.22
